The results in this text go back to article doi:10.64898/2025.12.18.695067.

This assay addresses DNAJB1 (recombinant, as used in SPR) (human) (UniProt P25685). The assay is described as follows: SPR.

A word on the Kd: it is the constant that tells how readily two partners part at equilibrium.

Chain of UniProt P25685 (P25685 whole entry): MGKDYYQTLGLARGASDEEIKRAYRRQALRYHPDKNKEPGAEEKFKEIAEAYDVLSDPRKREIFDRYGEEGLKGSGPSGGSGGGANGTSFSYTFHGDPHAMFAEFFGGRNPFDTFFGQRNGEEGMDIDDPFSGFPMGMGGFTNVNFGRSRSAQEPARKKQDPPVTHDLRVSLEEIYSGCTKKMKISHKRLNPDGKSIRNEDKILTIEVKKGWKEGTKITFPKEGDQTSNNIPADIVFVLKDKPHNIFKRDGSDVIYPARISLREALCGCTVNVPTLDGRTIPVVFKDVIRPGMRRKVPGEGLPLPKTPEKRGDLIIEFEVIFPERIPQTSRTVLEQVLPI

On to “K27-linked diubiquitin (chemically synthesized; tag not told for the experiment) (from UniProt P0CG48 1-76; P0CG48 1-76)”, for which the Kd is 1830 nM.

With “K27-linked tetraubiquitin (synthetic) (from UniProt P0CG48 1-76)”, the Kd worked out at 3420 nM.
